Laboratory results: US20250121043A1

Key:
Assay in all cases: cell-based or functional assay
17.4α/8.3β TCR (8.3-TCR) = molecular target: 17.4α/8.3β TCR (8.3-TCR)
[1] = molecular target: 17.6α/8.3β TCR (low affinity IGRP206-214-reactive Vα17.6/8.3β TCR)
[2] = molecular target: Vα17.5+ TCR (CDR3-invariant Vα17.5-Jα42 chain with a single TCRβ chain) on TCRαβ-transfectants

- percentage of cells that had formed CD8 caps, 5 min of incubation with beads (17.4α/8.3β TCR (8.3-TCR)): < 20%
- percentage of cells that had formed CD8 caps, 5 min of incubation with beads [1]: < 20%
- percentage of cells that had formed CD8 caps, 30 min of incubation with beads [1]: < 20%
- percentage of cells that had formed CD8 caps, 5 min of incubation with beads [2]: > 60%
Substance: NRP-V7/K^d-coated nanoparticles (from UniProt P01902 22-305) (peptide-MHC)
